Experimental data: PMC3618186

How the values were obtained:
[1] = target: p150Glued CC1 (Drosophila melanogaster) (UniProt P13496); assay: ITC; conditions: cited from earlier work
[2] = target: dynactin p150^Glued coiled-coil 1 (CC1) (R. norvegicus) (UniProt P28023); assay: SEC; equimolar IC-TcTex1-LC8 complex and p150Glued fragment (CC1, CC1A, CC1B), alone or in combination, analytical Superdex 200 10/300 GL; fractions checked by SDS-PAGE
[3] = target: dynactin p150^Glued coiled-coil 1B (CC1B), residues 381–530 (R. norvegicus) (UniProt P28023); assay: as above
[4] = target: dynactin p150^Glued coiled-coil 1 (CC1) (R. norvegicus) (UniProt P28023); assay: AUC; sedimentation equilibrium of the p150Glued fragments alone, 4°C, 1x PBS, 1 mM TCEP; monomer-dimer model (dimer to monomers)
[5] = target: Cytoplasmic dynein 1 intermediate chain 2, isoform 2C, N-terminal fragment IC1-124 (UniProt Q62871); assay: sedimentation equilibrium analytical ultracentrifugation (Beckman-Coulter XLI, absorbance optics); conditions: 4 °C
[6] = target: dynactin p150^Glued coiled-coil 1 (CC1) (R. norvegicus) (UniProt P28023); assay: AUC; sedimentation equilibrium, CC1 + IC 1-124, 4°C, pH 7.0; model CC1 dimer + 2 IC, constant in M^2
[7] = target: dynactin p150^Glued coiled-coil 1 (CC1) (R. norvegicus) (UniProt P28023); assay: AUC; sedimentation equilibrium, CC1 + IC 1-124, 4°C, pH 8.0; model CC1 dimer + 2 IC, constant in M^2
[8] = target: dynactin p150^Glued coiled-coil 1 (CC1) (R. norvegicus) (UniProt P28023); assay: AUC; sedimentation equilibrium, CC1 + IC 1-124, 4°C, pH 9.0; model CC1 dimer + 2 IC, constant in M^2
[9] = target: dynactin p150^Glued coiled-coil 1 (CC1) (R. norvegicus) (UniProt P28023); assay: AUC; sedimentation equilibrium, stoichiometric CC1 + IC 1-124, 4°C, 100 mM NaCl; model CC1 dimer + 2 IC, constant in M^2
[10] = target: dynactin p150^Glued coiled-coil 1 (CC1) (R. norvegicus) (UniProt P28023); assay: AUC; sedimentation equilibrium, stoichiometric CC1 + IC 1-124, 4°C, 250 mM NaCl; model CC1 dimer + 2 IC, constant in M^2
[11] = target: dynactin p150^Glued coiled-coil 1 (CC1) (R. norvegicus) (UniProt P28023); assay: AUC; sedimentation equilibrium, stoichiometric CC1 + IC 1-124, 4°C, 500 mM NaCl; model CC1 dimer + 2 IC, constant in M^2
[12] = target: dynactin p150^Glued coiled-coil 1 (CC1) (R. norvegicus) (UniProt P28023); assay: AUC; sedimentation equilibrium, stoichiometric CC1 + IC 1-124, 4°C, 1000 mM NaCl; model CC1 dimer + 2 IC, constant in M^2
[13] = target: dynactin p150^Glued coiled-coil 1 (CC1) (R. norvegicus) (UniProt P28023); assay: AUC; sedimentation equilibrium of admixtures of p150Glued fragment and IC 1-124, 4°C, 1x PBS, 1 mM TCEP; model p150 dimer + 2 IC -> dimer-IC2, constant in M^2; CC1A: 10 μM + 10 μM
[14] = target: dynactin p150^Glued coiled-coil 1A (CC1A), residues 204–348 (R. norvegicus) (UniProt P28023); assay: as above
[15] = target: dynactin p150^Glued coiled-coil 1B (CC1B), residues 381–530 (R. norvegicus) (UniProt P28023); assay: as above

Chain of Cytoplasmic dynein 1 intermediate chain 2, isoform 2C, N-terminal fragment IC1-124 (Q62871 whole entry, the tested form may be a part, canonical isoform): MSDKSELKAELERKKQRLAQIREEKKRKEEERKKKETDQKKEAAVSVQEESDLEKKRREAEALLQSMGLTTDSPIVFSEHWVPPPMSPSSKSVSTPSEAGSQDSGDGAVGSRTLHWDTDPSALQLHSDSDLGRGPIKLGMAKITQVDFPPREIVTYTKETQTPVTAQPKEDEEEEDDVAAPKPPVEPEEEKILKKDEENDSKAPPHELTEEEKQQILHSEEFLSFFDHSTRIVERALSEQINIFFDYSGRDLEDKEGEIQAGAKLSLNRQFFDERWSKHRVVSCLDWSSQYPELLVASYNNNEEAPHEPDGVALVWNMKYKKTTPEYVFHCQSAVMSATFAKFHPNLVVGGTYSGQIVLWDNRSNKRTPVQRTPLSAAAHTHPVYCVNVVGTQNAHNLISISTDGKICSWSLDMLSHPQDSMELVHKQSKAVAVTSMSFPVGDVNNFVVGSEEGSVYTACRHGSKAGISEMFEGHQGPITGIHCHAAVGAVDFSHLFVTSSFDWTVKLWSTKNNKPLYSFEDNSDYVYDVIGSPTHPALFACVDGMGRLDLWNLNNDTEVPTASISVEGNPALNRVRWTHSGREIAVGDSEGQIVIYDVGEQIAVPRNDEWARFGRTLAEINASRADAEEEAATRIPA
Chain of dynein intermediate chain (Q24246 whole entry): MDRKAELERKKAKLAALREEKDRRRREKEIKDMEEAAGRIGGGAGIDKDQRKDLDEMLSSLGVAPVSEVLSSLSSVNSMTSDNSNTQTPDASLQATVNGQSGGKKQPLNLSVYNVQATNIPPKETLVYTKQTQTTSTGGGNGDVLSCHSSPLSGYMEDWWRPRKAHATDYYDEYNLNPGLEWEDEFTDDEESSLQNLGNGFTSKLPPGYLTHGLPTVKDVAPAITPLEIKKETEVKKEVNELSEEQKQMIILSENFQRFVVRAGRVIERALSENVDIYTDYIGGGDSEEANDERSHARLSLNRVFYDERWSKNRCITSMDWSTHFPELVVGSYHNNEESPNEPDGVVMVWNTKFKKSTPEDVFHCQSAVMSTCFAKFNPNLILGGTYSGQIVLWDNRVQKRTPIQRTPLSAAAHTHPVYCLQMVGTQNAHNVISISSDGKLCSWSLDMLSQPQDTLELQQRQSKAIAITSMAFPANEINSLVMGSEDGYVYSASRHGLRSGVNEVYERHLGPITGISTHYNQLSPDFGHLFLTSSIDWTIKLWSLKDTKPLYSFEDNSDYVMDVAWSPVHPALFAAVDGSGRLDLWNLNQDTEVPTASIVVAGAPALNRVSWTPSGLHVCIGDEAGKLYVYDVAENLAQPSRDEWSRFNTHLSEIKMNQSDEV
Chain of p150Glued CC1 (Drosophila melanogaster) (P13496 221-509): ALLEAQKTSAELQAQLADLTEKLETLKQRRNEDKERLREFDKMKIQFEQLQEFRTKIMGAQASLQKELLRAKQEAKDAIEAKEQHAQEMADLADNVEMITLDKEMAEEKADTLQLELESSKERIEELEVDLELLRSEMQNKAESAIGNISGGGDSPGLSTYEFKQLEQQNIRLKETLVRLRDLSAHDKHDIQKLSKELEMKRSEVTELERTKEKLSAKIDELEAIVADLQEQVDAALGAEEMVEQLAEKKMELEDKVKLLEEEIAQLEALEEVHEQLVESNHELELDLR

In the case of “dynein intermediate chain (from UniProt Q24246)”, the Kd [1] is given as 3.5 µM.
Substance “IC2B^1–158-TcTex1-LC8 complex (from UniProt Q9Z336 1-113; P63170 1-89)” has a change in elution volume of the IC complex [2] of 2.22 mL and a change in elution volume of the IC complex [3] of 1.26 mL.
In the case of “dynactin p150^Glued coiled-coil 1 (CC1) (from UniProt P28023 204-530) (domain or fragment)”, the Kd [4] is reported as under 0.001 µM and the stoichiometry N [4] is reported as 2.
In the case of “Dynactin subunit 1 (p150Glued) CC1 fragment”, the dissociation constant ([5]; pH 7.0, not stated (pH series 6.0, 7.0, 8.0, 9.0; buffer substances not named)) is reported as ≤10^−13 M^2, the dissociation constant ([5]; pH 7.4, 1x PBS: 137 mM NaCl, 2.7 mM KCl, 1x PBS (4.3 mM Na2HPO4, 1.47 mM KH2PO4, pH 7.4)) is reported as <10^−15 M^2 and the dissociation constant ([5]; pH 8.0, not stated (pH series 6.0, 7.0, 8.0, 9.0; buffer substances not named)) is reported as ≤10^−14 M^2. For the same substance, the dissociation constant ([5]; pH 9.0, not stated (pH series 6.0, 7.0, 8.0, 9.0; buffer substances not named)) was ≤10^−12 M^2.
With “dynein intermediate chain isoform 2C, residues 1–124 (domain or fragment)” the overall dissociation constant, p150 dimer + 2 IC [6] was under 1e-13 M^2, the overall dissociation constant, p150 dimer + 2 IC [7] was under 1e-14 M^2 and the overall dissociation constant, p150 dimer + 2 IC [8] was under 1e-12 M^2. For the same substance, the overall dissociation constant, p150 dimer + 2 IC [9] was over 1e-15 M^2, the overall dissociation constant, p150 dimer + 2 IC [10] was 1e-12 M^2 and the overall dissociation constant, p150 dimer + 2 IC [11] was 1e-10 M^2. For the same substance, the overall dissociation constant, p150 dimer + 2 IC [12] was 1e-08 M^2, the overall dissociation constant, p150 dimer + 2 IC [13] was under 1e-15 M^2 and the stoichiometry N (IC per CC1 dimer) [13] was 2. It also gave an overall dissociation constant, p150 dimer + 2 IC [14] of over 1e-10 M^2, an overall dissociation constant on the scale of Figure S4B (scale not told, presumably -log10) [15] of 12 and a stoichiometry N (IC per CC1B dimer) [15] of 2.
